The record followed here is US20230212587A1, “Mutant Hydroxyphenylpyruvate Dioxygenase Polypeptide, Encoding Gene Thereof and Use Therefor” (Beijing Dabeinong Biotechnology Co., Ltd., priority 2019, published 2023).

This experiment deals with Arabidopsis thaliana T1 plants. As to the kind of experiment: Topramezone tolerance of transgenic Arabidopsis thaliana T1 plants (pesticide damage grade by bleached leaf area, score, resistance evaluation). The class given is in vivo. The following applies: HPPD F372G mutants, Table 6. In short, it runs like this: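 Herbicide tolerance was judged per plant on a bleaching scale (grade 0 no bleaching to grade 3 fully bleached) 7 DAT. Topramezone doses were 0, 25, 50 and 100 g ai/ha on 18-day-old T1 and wild-type plants.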

B1: CaHPPDm-F372G: Cicer arietinum HPPD mutant F372G, SEQ ID NO: 315 (protein)
chain: MGTIETQTGFKLVGFNNFVRTNPKSDRFKVKRFHHVEFWCPDATNTARRFSWGLGMPIVAKSDLSTGNQTHASYLLRSGDLNFLFTAAYSPSISLSAPHPTASIPSFSAPTSFAFSASHGLGVRAVAIEVDDAEFAYTTSVNHGAIPSSPPVVLDNRVKLAEVQLYGDVVLRYVSYNDPIETSNPNPNHWFLPGFEPVEETSSNQSIDFGIQRLDHAVGNVPELSSALNYVKQFTGFHEFAEFTAEDVGTSESGLNSTVLANNEETVLLPMNEPVYGTKRKSQIQTYLEHNEGAGLQHLALMSNDIFKTLREMRKRSGIGGFEFMPSPPPTYYSNLKKRVGDVLNDEQIKECEELGILVDKDDQGTLLQIGTKPVGDRPTIFIEIIQRVGCMLKDDEGKEYQKGGCGGFGKGNFSELFKSIEEYEKTLEIKRTA
modifications: CaHPPDm-F372G Amino Acid Sequence
On to B1, for which the Resistance evaluation entry reads like this: (topramezone 25 g ai/ha (1x)) “Poorly resistant”; (topramezone 100 g ai/ha (4x)) “Non-resistant”.

B2: MsHPPDm-F372G: Medicago sativa HPPD mutant F372G, SEQ ID NO: 321 (protein)
chain: MAIETETQTQTGFKLVGFKNFVRANPKSDRFKVKRFHHVEFWCTDATNTARRFSHGLGMPIVAKSDLSTGNQTHASYLLRSGDLNFLFSAAYSPSISLSSPSSTAAIPTFSASNCFSFSASHGLAVRAVAVEVEDAELAFTTSVNNGAIPSSPPVILENHVKLAEVRLYGDVVLRYVSYNDPNPNQNPNLLFLPGFERVSDESSNSSLDFGIRRLDHAVGNVPELSSAVKYVKDFTGFHEFAEFTAEDVGTSESGLNSVVLANNEETVLLPMNEPVYGTKRKSQIETYLEHNEGAGLQHLALKSEDIFRTLREMRKRSGVGGFEFMPSPPVTYYRNLKNRVGDVLSDEQIKECEELGILVDRDDQGTLLQIGTKPIGDRPTIFIEIIQRVGCMLKDEEGKEYQKGGCGGFGKGNFSELFKSIEEYEKTLETRRTA
modifications: MsHPPDm-F372G Amino Acid Sequence
As to B2, the Resistance evaluation result (topramezone 25 g ai/ha (1x)) was “Moderately resistant” and the Resistance evaluation result (topramezone 100 g ai/ha (4x)) is “Non-resistant”.

B3: HaHPPDm-F372G: Helianthus annuus HPPD mutant F372G, SEQ ID NO: 319 (protein)
chain: MGTEATVAAVVAGDESDHPTSAFKLVGFKNFIRTNPMSDKFTVKNFHHIEFWCSDATNTARRFSWGLGMPIIFKSDLSTGNSTHASYLLRSGHLNFLFTAPYSPSISPTTTTASIPTFSHSASRHFTATHGLAVRAIAVEVEDAETAFAVSVANGAKPSSPPVTLGHNDVVLSEVKLYGDVVLRYVSYKNNTNNNNNNDNDNYIFLPGFEAMDKTSSFQELDYGIRRLDHAVGNVPELAPAVDYVKSFTGFHEFAEFTAEDVGTSESGLNSVVLACNSEMVLIPMNEPVYGTKRKSQIQTYLEHNEGAGVQHLALASEDIFRTLREMRKRSGVGGFEFMPSPPPTYYRNLKSRAGDVLSDEQIKECEELGILVDRDDQGTLLQIGTKPVGDRPTIFIEIIQRVGCMVKDDEGKVQQKAGCGGFGKGNFSELFKSIEEYEKTLEARSTTAA
modifications: HaHPPDm-F372G Amino Acid Sequence
For the molecule B3, the Resistance evaluation result is on record as “Poorly resistant” (topramezone 25 g ai/ha (1x)) and “Non-resistant” (topramezone 100 g ai/ha (4x)).

B4: BnHPPDm-F372G: Brassica napus HPPD mutant F372G, SEQ ID NO: 317 (protein)
chain: MGHENAAVCETQQHDDAASPGFKLVGFSKFVRKNPKSDKFKVKRFHHIEFWCGDATNVSRRFSWGLGMRFSAKSDLSTGNMVHASYLLTSGDLRFLFTAPYSPSLSAGEAQPSATASIPSFDHASCRSFFSSHGLGVRAVAIEVEDAESAFSISVANGAVPSSPPNVLNGAVTIAEVKLYGDVVLRYVSYYNGTVSFLPGFESVDDTSSFPLDYGIRRLDHAVGNVPELGPALTYLAGFTGFHQFAEFTADDVGTAESGLNSAVLANNDEMVLLPINEPVHGTKRKSQIQTFLEHNEGAGLQHLALMSEDIFRTLREMRKRSGVGGFDFMPSPPPTYYKNLKKRVGDVLSEEQIEECEELGILVDRDDQGTLLQIGTKPLGDRPTIFIEIIQRVGCMKRDEEGKVYQSGGCGGFGKGNFSELFKSIEEYEKTLEAKQLVG
modifications: BnHPPDm-F372G Amino Acid Sequence
As to B4, the Resistance evaluation result (topramezone 25 g ai/ha (1x)) is recorded as “Poorly resistant” and the Resistance evaluation entry (topramezone 100 g ai/ha (4x)) is recorded as “Non-resistant”.

B5: CsHPPDm-F372G: Cucumis sativus HPPD mutant F372G, SEQ ID NO: 327 (protein)
chain: MGKEADFPRAPSEATDGGATASQSEFELQGFDNFIRTNPKSDRFKVKRFHHIEFWCTDATNVARRFSWGLGMQIVAKSDLSTGNMTHASYLLRSGHLCFLFTAPYSPSIAAAQNLTPASTASIPSFDHSVCRSFSGTHGFGARAIALEVEDAEIAFRTSVAHGAKPSCPPIVLENRAVLSEVHLYGDVVLRYISYKNPVSGDNGENKPDEWFLPKFEAMEETASFPLDFGIRRLDHAVGNVPELGPAVSYLKGFTGFHEFAEFTAEDVGTSESGLNSMVLANNEEMVLLPINEPVFGTKRKSQIQTYLEHNEGAGVQHLALMSEDIFRTLREMRKRSSVGGFEFMPSPPPTYYKNLKSRAGDVLTDEQIKECEELGILVDKDDQGTLLQIGTKPVGDRPTIFIEIIQRLGCMMKDEEGKAFQKGGCGGFGKGNFSELFKSIEEYEKTLEAKRVSE
modifications: CsHPPDm-F372G Amino Acid Sequence
Regarding B5, the Resistance evaluation entry by setting is: (topramezone 25 g ai/ha (1x)) “Poorly resistant”; (topramezone 100 g ai/ha (4x)) “Non-resistant”.

B6: AtHPPDm-F372G: Arabidopsis thaliana HPPD mutant F372G, SEQ ID NO: 297 (protein)
chain: MGHQNAAVSENQNHDDGAASSPGFKLVGFSKFVRKNPKSDKFKVKRFHHIEFWCGDATNVARRFSWGLGMRFSAKSDLSTGNMVHASYLLTSGDLRFLFTAPYSPSLSAGEIKPTTTASIPSFDHGSCRSFFSSHGLGVRAVAIEVEDAESAFSISVANGAIPSSPPIVLNEAVTIAEVKLYGDVVLRYVSYKAEDTEKSEFLPGFERVEDASSFPLDYGIRRLDHAVGNVPELGPALTYVAGFTGFHQFAEFTADDVGTAESGLNSAVLASNDEMVLLPINEPVHGTKRKSQIQTYLEHNEGAGLQHLALMSEDIFRTLREMRKRSSIGGFDFMPSPPPTYYQNLKKRVGDVLSDDQIKECEELGILVDRDDQGTLLQIGTKPLGDRPTIFIEIIQRVGCMMKDEEGKAYQSGGCGGFGKGNFSELFKSIEEYEKTLEAKQLVG
modifications: AtHPPDm-F372G Amino Acid Sequence
Take B6: the Resistance evaluation entry runs as follows: (topramezone 25 g ai/ha (1x)) “Poorly resistant”; (topramezone 100 g ai/ha (4x)) “Non-resistant”.

B7: BvHPPDm-F372G: Beta vulgaris HPPD mutant F372G, SEQ ID NO: 323 (protein)
chain: MGTLSPQPQTSPSQFKLVGYSNFIRVNPLSDLFPVKRFHHVEFWCGDATNVSRRFSWGLGMPIVAKSDLSTGNSVHASYLLRSGELHFLFTSPYSPSLSSPSSATIPTFSFSLFTSFLTSHGLAVRAVAVEVQDAEAAFHISVSNGASPVSPPIRLHDGVVLSEVHLYGDVVLRYVSTSSVVDGIFLPGFEEMLGESSFQELDFGLRRLDHAVGNVPELAPAIEYVKKFTGFHEFAEFTTEDVGTSESGLNSAVVANNDETVLFPMNEPVYGTKRKSQIQTYLEHNEGAGVQHLALMSEDIFWTLREMRKRSGLGGFEFMPSPPPTYYRNLRNRAADVLSEEQMKECEELGILVDKDDQGTLLQIGTKPIGDRPTMFIEIIQRIGCMMKDEEGKVYQKGGCGGFGKGNFSELFKSIEEYEKTLERKPIADTNAT
modifications: BvHPPDm-F372G Amino Acid Sequence
Regarding B7, the Resistance evaluation entry (topramezone 25 g ai/ha (1x)) is “Moderately resistant” and the Resistance evaluation entry (topramezone 100 g ai/ha (4x)) is recorded as “Non-resistant”.

B8: GmHPPDm-F372G: Glycine max HPPD mutant F372G, SEQ ID NO: 313 (protein)
chain: MPMYTPSLSAPSSNHIQPSVTLPLYITTTKLNLKQQHHTTPMPIPMCNEIQAQAQAQAQPGFKLVGFKNFVRTNPKSDRFQVNRFHHIEFWCTDATNASRRFSWGLGMPIVAKSDLSTGNQIHASYLLRSGDLSFLFSAPYSPSLSAGSSAASSASIPSFDAATCLAFAAKHGFGVRAIALEVADAEAAFSASVAKGAEPASPPVLVDDRTGFAEVRLYGDVVLRYVSYKDAAPQAPHADPSRWFLPGFEAAASSSSFPELDYGIRRLDHAVGNVPELAPAVRYLKGFSGFHEFAEFTAEDVGTSESGLNSVVLANNSETVLLPLNEPVYGTKRKSQIETYLEHNEGAGVQHLALVTHDIFTTLREMRKRSFLGGFEFMPSPPPTYYANLHNRAADVLTVDQIKQCEELGILVDRDDQGTLLQIGTKPVGDRPTIFIEIIQRIGCMVEDEEGKVYQKGACGGFGKGNFSELFKSIEEYEKTLEAKRTA
modifications: GmHPPDm-F372G Amino Acid Sequence
As for B8, the Resistance evaluation entry is, setting by setting: (topramezone 25 g ai/ha (1x)) “Poorly resistant”; (topramezone 100 g ai/ha (4x)) “Non-resistant”.

B9: NtHPPDm-F372G: Nicotiana tabacum HPPD mutant F372G, SEQ ID NO: 325 (protein)
chain: MGKLETVTTTSAAAADDSSELTTNFKLVGFKNFIRTNPRSDFFSVKSFHHIEFWCGDATNTARRFSWSLGMPIAAKSDLSTGNSVHASYLLRPVSGSLQFLFTAPYSPSISTPSSAAIPSFSTSTHRSFTTTHGLGVRAVALEVENAYTAFSASVSRGAKPMFEPVTIDEQVAMAEVHLYGDVVLRFVSYLKDADNLVFLPGFEAMDETASYKELDYGIRRLDHAVGNVPELGPVVDYIKRFTGFHEFAEFTAEDVGTAESGLNSMVLANNDETVLLPLNEPVYGTKRKSQIQTYLEHNEGAGVQHLALVTEDIFKTLTEMRKRSGVGGFEFMPSPPPTYYKNLKNRAGDVLSDEQILACEELGILVDRDDQGTLLQIGTKPVGDRPTIFIEIIQRIGCMLKDGKGQVYQKGGCGGFGKGNFSELFRSIEEYEKTLEAKQANQVAAA
modifications: NtHPPDm-F372G Amino Acid Sequence
For the molecule B9, the Resistance evaluation entry (topramezone 25 g ai/ha (1x)) was “Poorly resistant” and the Resistance evaluation result (topramezone 100 g ai/ha (4x)) is “Non-resistant”.
